Test results published in PMC7745063, “Investigating the reaction and substrate preference of indole-3-acetaldehyde dehydrogenase from the plant pathogen Pseudomonas syringae PtoDC3000” (Bioscience Reports, 2020).

What was measured:
[1] = biological target: the molecule itself; experiment: crystal structure; AldA C302A with IAA and NAD+, hanging drop at 4°C, 24% PEG-1000, 100 mM Tris/HCl pH 7.0; 2.85 Å; eight monomers in the asymmetric unit
[2] = biological target: the molecule itself; experiment: SEC

| Protein | stoichiometry N [1] | stoichiometry N [2] |
| --- | --- | --- |
| AldA C302A mutant (enzyme, source: E. coli BL21 (DE3), purified (Ni-NTA, Superdex-200 size-exclusion)) MTTLTRADWEQRAQNLKIEGRAFIQGEYTAAASGETFDCISPVDGRLLAKVASCDAADAQRAVESARSAFDSGAWSRLAPAKRKATMIRFAGLLEQNAEELALLETLDMGKPISDSLGVDIPGGARALSWSGEAIDKLYDEVAATPHDQLGLVTREPVGVVAAIVPWNFPLMMACWKLGPALSTGNSVVLKPSEKSPLTAIRIAQLAIEAGIPAGVLNVLPGYGHTVGKALALHMDVDTVVFTGSTKIAKQLMIYAGESNMKRVWLEAGGKSPNIVFADAPDLQAAADSAASAIAFNQGEVATAGSRLLVERSIKDRFLPMVIEALGTWKPGNPLDPATNVGALVDTQQMNTVLSYIAAGHTDGARLVAGGKQILQETGGTYVEPTIFDGVNNAMRIAQEEIFGPVLSVLTFDTAEEAIQIANDTPYGLAAAVWTANLSKAHLTARALRAGSVWVNQYDGGDMTAPFGGFKQSGNGRDKSLHAFDKYTELKSTWIKL | 4 | – |
| AldA indole-3-acetaldehyde dehydrogenase from Pseudomonas syringae strain PtoDC3000, wild-type (enzyme, also called wild-type AldA; WT; source: E. coli BL21 (DE3), purified (Ni-NTA, Superdex-200 size-exclusion)) MTTLTRADWEQRAQNLKIEGRAFIQGEYTAAASGETFDCISPVDGRLLAKVASCDAADAQRAVESARSAFDSGAWSRLAPAKRKATMIRFAGLLEQNAEELALLETLDMGKPISDSLGVDIPGGARALSWSGEAIDKLYDEVAATPHDQLGLVTREPVGVVAAIVPWNFPLMMACWKLGPALSTGNSVVLKPSEKSPLTAIRIAQLAIEAGIPAGVLNVLPGYGHTVGKALALHMDVDTVVFTGSTKIAKQLMIYAGESNMKRVWLEAGGKSPNIVFADAPDLQAAADSAASAIAFNQGEVCTAGSRLLVERSIKDRFLPMVIEALGTWKPGNPLDPATNVGALVDTQQMNTVLSYIAAGHTDGARLVAGGKQILQETGGTYVEPTIFDGVNNAMRIAQEEIFGPVLSVLTFDTAEEAIQIANDTPYGLAAAVWTANLSKAHLTARALRAGSVWVNQYDGGDMTAPFGGFKQSGNGRDKSLHAFDKYTELKSTWIKL | – | 4 |
| AldA E267A mutant (enzyme, source: E. coli BL21 (DE3), purified (Ni-NTA, Superdex-200 size-exclusion)) MTTLTRADWEQRAQNLKIEGRAFIQGEYTAAASGETFDCISPVDGRLLAKVASCDAADAQRAVESARSAFDSGAWSRLAPAKRKATMIRFAGLLEQNAEELALLETLDMGKPISDSLGVDIPGGARALSWSGEAIDKLYDEVAATPHDQLGLVTREPVGVVAAIVPWNFPLMMACWKLGPALSTGNSVVLKPSEKSPLTAIRIAQLAIEAGIPAGVLNVLPGYGHTVGKALALHMDVDTVVFTGSTKIAKQLMIYAGESNMKRVWLAAGGKSPNIVFADAPDLQAAADSAASAIAFNQGEVCTAGSRLLVERSIKDRFLPMVIEALGTWKPGNPLDPATNVGALVDTQQMNTVLSYIAAGHTDGARLVAGGKQILQETGGTYVEPTIFDGVNNAMRIAQEEIFGPVLSVLTFDTAEEAIQIANDTPYGLAAAVWTANLSKAHLTARALRAGSVWVNQYDGGDMTAPFGGFKQSGNGRDKSLHAFDKYTELKSTWIKL | – | 4 |
| AldA E267Q mutant (enzyme, source: E. coli BL21 (DE3), purified (Ni-NTA, Superdex-200 size-exclusion)) MTTLTRADWEQRAQNLKIEGRAFIQGEYTAAASGETFDCISPVDGRLLAKVASCDAADAQRAVESARSAFDSGAWSRLAPAKRKATMIRFAGLLEQNAEELALLETLDMGKPISDSLGVDIPGGARALSWSGEAIDKLYDEVAATPHDQLGLVTREPVGVVAAIVPWNFPLMMACWKLGPALSTGNSVVLKPSEKSPLTAIRIAQLAIEAGIPAGVLNVLPGYGHTVGKALALHMDVDTVVFTGSTKIAKQLMIYAGESNMKRVWLQAGGKSPNIVFADAPDLQAAADSAASAIAFNQGEVCTAGSRLLVERSIKDRFLPMVIEALGTWKPGNPLDPATNVGALVDTQQMNTVLSYIAAGHTDGARLVAGGKQILQETGGTYVEPTIFDGVNNAMRIAQEEIFGPVLSVLTFDTAEEAIQIANDTPYGLAAAVWTANLSKAHLTARALRAGSVWVNQYDGGDMTAPFGGFKQSGNGRDKSLHAFDKYTELKSTWIKL | – | 4 |
